Laboratory results published in patent publication US7514408.

Target: β-secretase (enzyme preparation not stated for the inhibitor assays) (human) (UniProt P56817)
Assay: cell-based or functional assay

Chain of β-secretase (enzyme preparation not stated for the inhibitor assays) (human) (P56817 46-501 limits assumed): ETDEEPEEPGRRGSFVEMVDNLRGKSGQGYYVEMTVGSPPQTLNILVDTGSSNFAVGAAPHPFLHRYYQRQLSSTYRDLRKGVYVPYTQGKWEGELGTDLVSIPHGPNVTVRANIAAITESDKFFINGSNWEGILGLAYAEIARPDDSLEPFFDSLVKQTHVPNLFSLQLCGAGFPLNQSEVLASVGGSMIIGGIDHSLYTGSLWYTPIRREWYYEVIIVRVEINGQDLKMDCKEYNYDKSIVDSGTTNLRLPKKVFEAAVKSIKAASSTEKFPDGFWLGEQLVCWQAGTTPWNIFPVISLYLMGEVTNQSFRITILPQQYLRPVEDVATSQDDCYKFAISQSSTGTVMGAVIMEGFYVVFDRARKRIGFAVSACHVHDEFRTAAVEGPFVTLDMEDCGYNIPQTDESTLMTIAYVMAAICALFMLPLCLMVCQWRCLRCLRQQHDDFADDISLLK

Question: Which IC50 in an MBP M125 assay (inhibition of β-secretase activity) does the source give for “Swedish mutant P13-P5′ peptide with P1′ aspartic acid replaced with a valine (D→V) (from UniProt P05067 659-676)” here?
Answer: 3000 nM

Question: And the enzyme inhibition relative to the Swedish sequence?
Answer: 100 times
